# Results reported in IntAct's records for PubMed 16239229.
# B1: Co-chaperonin GroES (Escherichia coli (strain K12)), P0A6F9 (parent)
# chain: MNIRPLHDRVIVKRKEVETKSAGGIVLTGSAAAKSTRGEVLAVGNGRILENGEVKPLDVKVGDIVIFNDGYGVKSEKIDNEEVLIMSESDILAIVEA
# Variants of: B1
# Details: with ch60_ecoli groEL
row,Variant,effect of a mutation on the interaction
1,MNIRPLHDRVIVKRKEVETKSAGGIVLTGCAAAKSTRGEVLAVGNGRILENGEVKPLDVKVGDIVIFNDGYGVKSEKIDNEEVLIMSESDILAIVEA [S30C],increasing interaction strength
2,MNIRPLHDRVIVKRKEVETKSAGGIVLCGSAAAKSTRGEVLAVGNGRILENGEVKPLDVKVGDIVIFNDGYGVKSEKIDNEEVLIMSESDILAIVEA [T28C],increasing interaction
3,MNIRPLHDRVIVKRKEVETKSAGGIVLTCSAAAKSTRGEVLAVGNGRILENGEVKPLDVKVGDIVIFNDGYGVKSEKIDNEEVLIMSESDILAIVEA [G29C],increasing interaction strength
